Results reported in PMC6733264 (ACS chemical biology, 2019).
Ends that are not written are not given here.

Target: kinase domain of BRAF^WT (human, UniProt P15056 457-717)
Experiment: other fluorescence titration

Chain of kinase domain of BRAF^WT (P15056 whole entry, looked up, the tested form may be a part): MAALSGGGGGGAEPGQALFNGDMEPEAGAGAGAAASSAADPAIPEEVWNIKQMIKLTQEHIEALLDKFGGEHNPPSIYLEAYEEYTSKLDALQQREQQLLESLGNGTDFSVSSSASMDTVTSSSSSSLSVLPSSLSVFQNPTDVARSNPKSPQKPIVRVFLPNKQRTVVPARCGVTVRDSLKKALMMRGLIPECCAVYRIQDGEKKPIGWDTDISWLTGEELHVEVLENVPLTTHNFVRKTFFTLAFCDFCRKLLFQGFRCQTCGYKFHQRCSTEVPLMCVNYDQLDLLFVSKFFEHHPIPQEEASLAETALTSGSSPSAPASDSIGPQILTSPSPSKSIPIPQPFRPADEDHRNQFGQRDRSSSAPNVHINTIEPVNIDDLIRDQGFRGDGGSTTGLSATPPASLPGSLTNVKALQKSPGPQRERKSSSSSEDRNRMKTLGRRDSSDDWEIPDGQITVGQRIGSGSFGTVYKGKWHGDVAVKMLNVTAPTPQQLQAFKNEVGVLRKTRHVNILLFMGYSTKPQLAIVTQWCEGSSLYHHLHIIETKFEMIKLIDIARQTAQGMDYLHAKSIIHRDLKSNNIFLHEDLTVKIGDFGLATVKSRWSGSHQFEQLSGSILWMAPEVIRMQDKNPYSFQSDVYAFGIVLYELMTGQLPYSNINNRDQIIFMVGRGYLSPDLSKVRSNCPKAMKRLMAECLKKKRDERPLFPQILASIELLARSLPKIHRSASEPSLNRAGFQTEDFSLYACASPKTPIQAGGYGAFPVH

B1: Braftide-Cy3 (peptide)
peptide: TRHVNILLFM
modifications: also: Cy3 label, end not given here
For B1, which Kd is on record?
Its Kd is 6.69 µM.
